Values of other authors in publication PMC3670934.

Legend:
CCL26 (Homo sapiens) = CCL26 (Homo sapiens) (UniProt Q9Y258)
CCL24 (Homo sapiens) = CCL24 (Homo sapiens) (UniProt O00175)
CCL11 (Homo sapiens) = CCL11 (Homo sapiens) (UniProt P51671)
Sequence of CCL11 (Homo sapiens) (P51671 24-97): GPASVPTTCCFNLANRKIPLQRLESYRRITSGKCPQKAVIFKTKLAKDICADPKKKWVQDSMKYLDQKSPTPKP

Sequence of CCR3 (P51677 whole entry): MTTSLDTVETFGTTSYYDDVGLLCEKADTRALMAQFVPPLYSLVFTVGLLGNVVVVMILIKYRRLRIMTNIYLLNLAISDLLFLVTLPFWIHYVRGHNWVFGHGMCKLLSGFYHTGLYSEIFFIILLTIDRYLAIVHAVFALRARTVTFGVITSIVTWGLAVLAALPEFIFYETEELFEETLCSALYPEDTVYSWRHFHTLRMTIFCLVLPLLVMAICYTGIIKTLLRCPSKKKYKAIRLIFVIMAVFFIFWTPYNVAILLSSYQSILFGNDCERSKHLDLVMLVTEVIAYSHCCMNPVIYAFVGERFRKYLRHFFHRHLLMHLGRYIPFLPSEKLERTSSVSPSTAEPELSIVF
Sequence of CCL26 (Homo sapiens) (Q9Y258 24-94): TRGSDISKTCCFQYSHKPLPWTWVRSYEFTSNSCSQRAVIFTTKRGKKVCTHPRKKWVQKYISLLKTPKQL
Sequence of CCL24 (Homo sapiens) (O00175 27-119): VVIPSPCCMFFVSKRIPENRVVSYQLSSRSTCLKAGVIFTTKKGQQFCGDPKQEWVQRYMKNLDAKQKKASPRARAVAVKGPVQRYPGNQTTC

CCR3 (from UniProt P51677)
Kd (CCL26 (Homo sapiens)): 0.9 nM
Kd (CCL24 (Homo sapiens)): 0.6 nM
Kd (CCL11 (Homo sapiens)): 0.52 nM
